Test results from article PMC7917804.

Biological target: poly(A)-binding protein (PABP), P11940
Experiment: co-immunoprecipitation with anti-FLAG antibody, Western blot quantified with ImageJ
Conditions: chain shown with the change, HeLa cells, parent: est. 1.0, read off a plot

Sequence of poly(A)-binding protein (PABP), P11940 (P11940 whole entry): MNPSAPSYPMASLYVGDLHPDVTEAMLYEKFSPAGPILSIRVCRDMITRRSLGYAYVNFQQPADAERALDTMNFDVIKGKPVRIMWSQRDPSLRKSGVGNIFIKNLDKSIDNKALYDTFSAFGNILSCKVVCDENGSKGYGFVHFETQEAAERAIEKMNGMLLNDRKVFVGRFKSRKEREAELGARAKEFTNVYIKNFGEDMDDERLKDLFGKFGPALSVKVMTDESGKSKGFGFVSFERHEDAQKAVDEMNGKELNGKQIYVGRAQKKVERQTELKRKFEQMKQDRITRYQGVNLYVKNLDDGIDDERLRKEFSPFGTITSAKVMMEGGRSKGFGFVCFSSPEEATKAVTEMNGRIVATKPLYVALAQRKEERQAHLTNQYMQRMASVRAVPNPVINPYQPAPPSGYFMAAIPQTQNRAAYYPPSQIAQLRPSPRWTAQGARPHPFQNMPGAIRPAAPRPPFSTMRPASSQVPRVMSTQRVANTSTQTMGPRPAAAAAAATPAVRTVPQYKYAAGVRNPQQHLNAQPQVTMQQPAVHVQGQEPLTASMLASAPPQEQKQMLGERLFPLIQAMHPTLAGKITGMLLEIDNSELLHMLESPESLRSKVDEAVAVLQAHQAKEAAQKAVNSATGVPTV

| response (three independent experiments) | response (two independent experiments) | Binder |
| --- | --- | --- |
| 0.81 | – | FLAG-HA-SBP (FHS)-tagged TNRC6A-SD-WT, Q8NDV7-2 S1616A; S1691A (protein) PLHQPAMKSFLDNVMPHTTPELQKGPSPINAFSNFPIGLNSNLNVNMDMNSIKEPQSRLRKWTTVDSISVNTSLDQNSSKHGAISSGFRLEESPFVPYDFMNSSTSPASPPGSIGDGWPRAKSPNGSSSVNWPPEFRPGEPWKGYPNIDPETDPYVTPGSVINNLSINTVREVDHLRDRNSGSSSSLNTTLPSTSAWSSIRASNYNVPLSSTAQSTSARNSDSKLTWSPGSVTNTSLAHELWKVPLPPKNITAPSRPPPGLTGQKPPLSTWDNSPLRIGGGWGNSDARYTPGSSWGESSSGRITNWLVLKNLTPQIDGSTLRTLCMQHGPLITFHLNLPHGNALVRYSSKEEVVKAQKSLHMCVLGNTTILAEFASEEEISRFFAQSQSLTPAPGWQSLGSSQSRLGSLDCSHSFSSRTDLNHWNGAGLSGTNCGDLHGTSLWGTPHYSTSLWGPPSSSDPRGISSPAPINAFLSVDHLGGGGESM |
| – | 0.89 | FLAG-HA-SBP (FHS)-tagged full-length TNRC6A, wild type, Q8NDV7-2 S1616A; S1691A (protein) MDADSASSSESERNITIMASGNTGGEKDGLRNSTGLGSQNKFVVGSSSNNVGHGSSTGPWGFSHGAIISTCQVSVDAPESKSESSNNRMNAWGTVSSSSNGGLNPSTLNSASNHGAWPVLENNGLALKGPVGSGSSGINIQCSTIGQMPNNQSINSKVSGGSTHGTWGSLQETCESEVSGTQKVSFSGQPQNITTEMTGPNNTTNFMTSSLPNSGSVQNNELPSSNTGAWRVSTMNHPQMQAPSGMNGTSLSHLSNGESKSGGSYGTTWGAYGSNYSGDKCSGPNGQANGDTVNATLMQPGVNGPMGTNFQVNTNKGGGVWESGAANSQSTSWGSGNGANSGGSRRGWGTPAQNTGTNLPSVEWNKLPSNQHSNDSANGNGKTFTNGWKSTEEEDQGSATSQTNEQSSVWAKTGGTVESDGSTESTGRLEEKGTGESQSRDRRKIDQHTLLQSIVNRTDLDPRVLSNSGWGQTPIKQNTAWDTETSPRGERKTDNGTEAWGSSATQTFNSGACIDKTSPNGNDTSSVSGWGDPKPALRWGDSKGSNCQGGWEDDSAATGMVKSNQWGNCKEEKAAWNDSQKNKQGWGDGQKSSQGWSVSASDNWGETSRNNHWGEANKKSSSGGSDSDRSVSGWNELGKTSSFTWGNNINPNNSSGWDESSKPTPSQGWGDPPKSNQSLGWGDSSKPVSSPDWNKQQDIVGSWGIPPATGKPPGTGWLGGPIPAPAKEEEPTGWEEPSPESIRRKMEIDDGTSAWGDPSKYNYKNVNMWNKNVPNGNSRSDQQAQVHQLLTPASAISNKEASSGSGWGEPWGEPSTPATTVDNGTSAWGKPIDSGPSWGEPIAAASSTSTWGSSSVGPQALSKSGPKSMQDGWCGDDMPLPGNRPTGWEEEEDVEIGMWNSNSSQELNSSLNWPPYTKKMSSKGLSGKKRRRERGMMKGGNKQEEAWINPFVKQFSNISFSRDSPEENVQSNKMDLSGGMLQDKRMEIDKHSLNIGDYNRTVGKGPGSRPQISKESSMERNPYFDKDGIVADESQNMQFMSSQSMKLPPSNSALPNQALGSIAGLGMQNLNSVRQNGNPSMFGVGNTAAQPRGMQQPPAQPLSSSQPNLRAQVPPPLLSPQVPVSLLKYAPNNGGLNPLFGPQQVAMLNQLSQLNQLSQISQLQRLLAQQQRAQSQRSVPSGNRPQQDQQGRPLSVQQQMMQQSRQLDPNLLVKQQTPPSQQQPLHQPAMKSFLDNVMPHTTPELQKGPSPINAFSNFPIGLNSNLNVNMDMNSIKEPQSRLRKWTTVDSISVNTSLDQNSSKHGAISSGFRLEESPFVPYDFMNSSTSPASPPGSIGDGWPRAKSPNGSSSVNWPPEFRPGEPWKGYPNIDPETDPYVTPGSVINNLSINTVREVDHLRDRNSGSSSSLNTTLPSTSAWSSIRASNYNVPLSSTAQSTSARNSDSKLTWSPGSVTNTSLAHELWKVPLPPKNITAPSRPPPGLTGQKPPLSTWDNSPLRIGGGWGNSDARYTPGSSWGESSSGRITNWLVLKNLTPQIDGSTLRTLCMQHGPLITFHLNLPHGNALVRYSSKEEVVKAQKSLHMCVLGNTTILAEFASEEEISRFFAQSQSLTPAPGWQSLGSSQSRLGSLDCSHSFSSRTDLNHWNGAGLSGTNCGDLHGTSLWGTPHYSTSLWGPPSSSDPRGISSPAPINAFLSVDHLGGGGESM |
